The target of this assay is Human factor XIa (human), P03951. In words: enzyme inhibition assay. As to conditions: remark: other sources report otherwise.

Numbered stars: 1 amine (or outer) side, 2 acyl side, 3 side chain; on linkers, the order of the positions; unused ones are H or OH. Bridge positions count the residues as written; N and C are the ends. Ends that are not written are not given here. TBMB = c1c(C[*:1])cc(C[*:3])cc1C[*:2]

ACTYPYKCLHQNLCA (linker 2-8-14 via TBMB) [2A10] returned a Ki of 75 µM.

Usually Ki stands for a dissociation constant, usually derived from enzyme kinetics or from competition with a known ligand. Read a high Ki as weaker binding.
